Laboratory results as given in article PMC5832849.

Target: scFvD8 mutant (scFvD8-M), L96Tyr to Ser and H98Asp to Ser (mouse)
Assay: ELISA; competitive: scFv at 0.5 nM pre-incubated with preS1 recombinant protein (1000 to 0.01 nM in PBST) at 37 °C for 1 h, then added to plates coated with 100 nM preS1, room temperature 30 min; detected with HRP-labelled anti-SUMO antibody; relative affinity

Sequence of scFvD8 mutant (scFvD8-M), L96Tyr to Ser and H98Asp to Ser (mouse) (heavy, as listed by the source, chain 1 of 2): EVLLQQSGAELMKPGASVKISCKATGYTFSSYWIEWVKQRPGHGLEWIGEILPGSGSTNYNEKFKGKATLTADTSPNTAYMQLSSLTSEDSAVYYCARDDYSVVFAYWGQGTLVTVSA
Sequence of scFvD8 mutant (scFvD8-M), L96Tyr to Ser and H98Asp to Ser (mouse) (light, as listed by the source, chain 2 of 2): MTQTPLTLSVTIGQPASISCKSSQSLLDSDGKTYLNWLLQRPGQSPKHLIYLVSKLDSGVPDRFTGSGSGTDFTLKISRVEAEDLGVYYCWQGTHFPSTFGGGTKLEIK

HBV preS1 recombinant protein (domain or fragment)
relative affinity (concentration at 50% protein binding saturation): 5 nM
